According to the supplement of paper PMC10724198:
± gives the standard deviation of the averaged measurements.

What follows are sequences tested on Saccharomyces cerevisiae (assay: protein stability index of tFT-peptide fusion (C-terminal peptide) (PSI (0-1 scale)); higher = more stable (slower turnover)). Details: genetic background: wild type; temperature: 30 C.
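Also: PSI is a weighted mean of sequencing reads over stability bins, variants kept only with over 10 reads, mCherry proximal and sfGFP distal, peptide attached via GGGS linker.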

Sequence | protein stability index
VTLFFLFSLSPP | 0.56 ± 0.013
VTLWGFFRVLSL | 0.686 ± 0.043
VVARFDTILLWS | 0.608 ± 0.06
VVARGGGGGSGA | 0.583 ± 0.016
VVAVRLPNVRHY | 0.655 ± 0.018
VVAVTTIDSTHL | 0.682 ± 0.033
VVFASNGSYVLG | 0.672 ± 0.041
VVFTSISFGLFV | 0.572 ± 0.044
VVGAHLWSGFSA | 0.711 ± 0.013
VVGGAGRRYVEG | 0.702 ± 0.036
VVGKKQTGEKEK | 0.725 ± 0.048
VVGRWRVCNVGL | 0.626 ± 0.05
VVGVLRVRSGEN | 0.606 ± 0.03
VVGYAIRVRSGL | 0.593 ± 0.018
VVLWSTGRVLYG | 0.699 ± 0.025
VVPDVGVVTSPA | 0.649 ± 0.072
VVRCVLSQKCLV | 0.578 ± 0.015
VVSRTCVRWGLV | 0.655 ± 0.039
VVSVQHEVIIFL | 0.611 ± 0.05
VVSWLGAGYSVR | 0.7 ± 0.071
VVWLWGAGWGCD | 0.747 ± 0.022
VVYFGVVVEGQV | 0.514 ± 0.032
VWAGGSLLGCVG | 0.686 ± 0.044

Sequence | protein stability index
VWAVALSRQGPC | 0.689 ± 0.016
VWFFSHFCGVRF | 0.686 ± 0.012
VWGAGGGVWGLG | 0.793 ± 0.0085
VWGRRVMESHGE | 0.628 ± 0.042
VWLGTCLPRRAV | 0.725 ± 0.13
VWRCWGGKGQDS | 0.729 ± 0.037
VWRRCVPGPASP | 0.67 ± 0.0097
VWSSCAGDVLFD | 0.734 ± 0.039
VWVFGLGLGRVV | 0.691 ± 0.032
VWVGSLWEHPTV | 0.781 ± 0.17
VWVWVGGGSRGC | 0.7121 ± 0.0041
VYAETMTKELRG | 0.69 ± 0.053
VYDCDVRHFGQC | 0.761 ± 0.053
VYHMFHLGPSFD | 0.7051 ± 0.0015
VYLEWQFGIKEL | 0.648 ± 0.052
VYMWFVDSPGGS | 0.682 ± 0.037
VYSLQSFSVRRY | 0.704 ± 0.018
VYYRRFTGGGLY | 0.583 ± 0.016
WACYRLGCGGSW | 0.774 ± 0.041
WAFSAFDHCVAS | 0.665 ± 0.058
WCAYRPGSTGHR | 0.731 ± 0.058
WCLDVGSVSWPF | 0.79432 ± 0.0005
WCNLSFEDNYVT | 0.658 ± 0.018

Sequence | protein stability index
WCWCSLVVDGTA | 0.5707 ± 0.0047
WFGAECVCVRGG | 0.762 ± 0.2
WFHSANLFLSLS | 0.705 ± 0.077
WFPNQCFENEIP | 0.742 ± 0.054
WFRCCGVLGCLG | 0.657 ± 0.019
WFRGRIFLFPLV | 0.628 ± 0.014
WGDGRGRVWEIS | 0.674 ± 0.048
WGEGRGRVWEIS | 0.665 ± 0.036
WGGCGSVGRGGA | 0.739 ± 0.052
WGGGGGGDCVGA | 0.6732 ± 0.0029
WGGGGGLCGMWA | 0.679 ± 0.032
WGGGGPGWGSRG | 0.621 ± 0.027
WGGRNWDGRGCG | 0.612 ± 0.068
WGGWGVGGRVLW | 0.675 ± 0.066
WGIQGIKFFVGA | 0.7111 ± 0.0032
WGISRSLRPGEV | 0.739 ± 0.12
WGQSMFSLLVSI | 0.542 ± 0.035
WGRRVRVEGVVL | 0.613 ± 0.022
WGSGGGRDGCGV | 0.655 ± 0.083
WGTVIYGVGSGQ | 0.691 ± 0.036
WGVCVIDSWQEG | 0.6706 ± 0.0032
WGVGVCSRVLRS | 0.674 ± 0.026
WGVVAVSGRLGA | 0.78 ± 0.012

Sequence | protein stability index
WGWGVGWSGACL | 0.7116 ± 0.0017
WGWGVLRRRVGA | 0.76 ± 0.082
WGWGWWEMVGRT | 0.674 ± 0.0039
WGWSGGEDCLEG | 0.64 ± 0.0073
WHDCLYLWADLG | 0.693 ± 0.04
WILFQAGSREIR | 0.701 ± 0.017
WISARQHQKTRL | 0.702 ± 0.065
WKQEKYTFKKRT | 0.707 ± 0.032
WLFGSFSLLFWL | 0.522 ± 0.015
WLFVALRGRFEF | 0.59 ± 0.042
WLKVRINFYKRK | 0.52 ± 0.038
WLRCGCVKWAGG | 0.657 ± 0.013
WLVPLDYKEGVV | 0.687 ± 0.035
WNQRMEPCLMSS | 0.65 ± 0.026
WPASLCRLGSVH | 0.64894 ± 0.00014
WPGRTGANTRSG | 0.671 ± 0.11
WPLLLHLLHLLR | 0.697 ± 0.12
WPLPRPEFCGAP | 0.6316 ± 0.0011
WPLVGLIGVPGR | 0.668 ± 0.035
WPMYSVIKAQLK | 0.638 ± 0.015
WPPPPPPPASPH | 0.719 ± 0.071
WPRPSLPPLYAP | 0.685 ± 0.051
WPYDRHTRHRET | 0.767 ± 0.092

Sequence | protein stability index
WPYEPGSSIVNG | 0.717 ± 0.01
WRKMSNDIRGRW | 0.799 ± 0.11
WRLAVDLGRFCT | 0.617 ± 0.16
WRSGLRGPAIYG | 0.707 ± 0.018
WRSLVTVSTTAC | 0.558 ± 0.042
WSLGLVGRGFWG | 0.73 ± 0.11
WSLGRRKLLHRI | 0.666 ± 0.064
WSLLLLPEFSLR | 0.705 ± 0.012
WSVGYLSVALYR | 0.615 ± 0.014
WSWEVTSSVCRI | 0.732 ± 0.058
WTFPWICFLGFG | 0.589 ± 0.029
WTRFSEKIVILR | 0.582 ± 0.026
WVGRGGAVENKV | 0.718 ± 0.03
WVLRRVGTVVYL | 0.585 ± 0.018
WVLSYVPEIGRL | 0.741 ± 0.035
WVWGWRRGLRGV | 0.657 ± 0.011
WVWKRLTGQDGA | 0.668 ± 0.06
WWGFGGVWRCGL | 0.6874 ± 0.0056
WWHVLLGGCGCW | 0.753 ± 0.013
WWLARNPLLSRL | 0.779 ± 0.026
WWSAHIRAGASL | 0.672 ± 0.017
WWWGGGRGGMGG | 0.734 ± 0.019
WYVALGRFVGGS | 0.678 ± 0.049

Sequence | protein stability index
YACFRYEYNRLR | 0.679 ± 0.029
YACRLAPGDLLA | 0.643 ± 0.0088
YAIINISRESLD | 0.717 ± 0.062
YAVGSAGLGVGL | 0.697 ± 0.1
YAVIRILCSSRR | 0.5725 ± 0.0039
YDMFCSYRFYPI | 0.636 ± 0.07
YDRVVHASSTMW | 0.707 ± 0.013
YEASSIPAWRYV | 0.529 ± 0.034
YEGPSTLVYHVR | 0.915 ± 0.082
YESIVLYPEMYL | 0.714 ± 0.2
YFFQAFLLRTPL | 0.642 ± 0.018
YFGGRGARGRER | 0.676 ± 0.027
YFGGRGPRGRER | 0.714 ± 0.0095
YFGRGKLGVVRT | 0.705 ± 0.013
YFKLLHSRPSVG | 0.675 ± 0.044
YFLLLLLNSSTP | 0.528 ± 0.042
YFLPLLCRSPSL | 0.707 ± 0.0095
YFPGILFGAIFS | 0.668 ± 0.07
YFTNSVPVGTVA | 0.501 ± 0.0076
YGSQAYAIDSKP | 0.6369 ± 0.0009
YGSSFRLVFSVT | 0.583 ± 0.0074
YGVEWGAESNLY | 0.8019 ± 0.0068
YHIGSINLTVRQ | 0.778 ± 0.083

Sequence | protein stability index
YHLISSVRLPSS | 0.731 ± 0.033
YIDLLTRVCIRR | 0.6921 ± 0.0024
YIKKTTPTIERG | 0.7157 ± 0.0039
YIRSYRITKREE | 0.656 ± 0.035
YISEKKKIEERK | 0.69 ± 0.032
YKGYEIIGSVQG | 0.72 ± 0.023
YKKLTRKKIQDK | 0.781 ± 0.0088
YKRKTKMQRVSN | 0.627 ± 0.01
YLEQALLDVQTD | 0.756 ± 0.021
YLIGRIIYFFGR | 0.582 ± 0.0021
YLLLPPPPPPSL | 0.722 ± 0.0098
YLNVVSSFYTCS | 0.684 ± 0.02
YLPRREAALRRV | 0.7118 ± 0.0034
YLSACLCGGFCS | 0.684 ± 0.047
YLVSRRSGCDLE | 0.683 ± 0.051
YMCPSFCLPLFP | 0.731 ± 0.1
YNDGSNPYLSRS | 0.722 ± 0.065
YNFLQSGADPNR | 0.721 ± 0.016
YNLASGIEVPID | 0.664 ± 0.013
YNSSSYCGGGCG | 0.6844 ± 0.0053
YPARSPPSPLSL | 0.686 ± 0.025
YPDYTSATGNIR | 0.666 ± 0.016
